In the DeepSol protein solubility set:

Test: soluble on expression in E. coli; label from the status in PepcDB or PDB records

Sequence	soluble on expression in E. coli
MGSDKIHHHHHHQIPREPITQQPMSAMPPMPPAMQAPGSIYNPGYAGRPLFEDQRPRNVGDILTIVIAENINATKSSGANTNRQGNTSFDVPTAGFLGGLFNKANLSAQGANKFAATGGASAANTFNGTITVTVTNVLPNGNLVVSGEKQMLINQGNEFVRFSGIVNPNTISGQNSVYSTQVADARIEYSAKGYINEAETMGWLQRFFLNIAPW	not soluble
VHVEDALTYLDQVKIRFGSDPATYNGFLEIMKEFKSQSIDTPGVIRRVSQLFHEHPDLIVGFNAFLP	soluble
MRKLWPLALLLAACGAQDVGAGLDPLRLTATSLPPAYLGEPYSASLAAEGGVRPYSFTLDGKLPEGLSFQGGRLFGVPKEKGSFPLLLTVEDAAKNSRAQRLTLTVSDPPPPRLALVLPPAQVEGPFLLLARVEGREAVGFQMEVRLADLEPDLAGLKALSPAHLLDYDPATRLLRLDMAFAKPVKDREAFRFLLTPQKPLVPRLSPKVVFYDKEGKPLGQPLPRGKPFAELLRLAQAWGREGKALKEDLDGDGKVGEADLRLLAQGYFPKPETPSPEVPGGGEGQASGEEQAP	soluble
MSDVAETLDPLRLPLQGERLIEASAGTGKTFTIAALYLRLLLGLGGSAAFPRPLTVEELLVVTFTEAATAELRGRIRSNIHELRIACLRETTDNPLYERLLEEIDDKAQAAQWLLLAERQMDEAAVFTIHGFCQRMLNLNAFESGMLFEQQLIEDESLLRYQACADFWRRHCYPLPREIAQVVFETWKGPQALLRDINRYLQGEAPVIKAPPPDDETLASRHAQIVARIDTVKQQWRDAVGELDALIESSGIDRRKFNRSNQAKWIDKISAWAEEETNSYQLPESLEKFSQRFLEDRTKAGGETPRHPLFEAIDQLLAEPLSIRDLVITRALAEIRETVAREKRRRGELGFDDMLSRLDSALRSESGEVLAAAIRTRFPVAMIDEFQDTDPQQYRIFRRIWHHQPETALLLIGDPKQAIYAFRGADIFTYMKARSEVHAHYTLDTNWRSAPGMVNSVNKLFSQTDDAFMFREIPFIPVKSAGKNQALRFVFKGETQPAMKMWLMEGESCGVGDYQSTMAQVCAAQIRDWLQAGQRGEALLMNGDDARPVRASDISVLVRSRQEAAQVRDALTLLEIPSVYLSNRDSVFETLEAQEMLWLLQAVMTPERENTLRSALATSMMGLNALDIETLNNDEHAWDVVVEEFDGYRQIWRKRGVMPMLRALMSARNIAENLLATAGGERRLTDILHISELLQEAGTQLESEHALVRWLSQHILEPDSNASSQQMRLESDKHLVQIVTIHKSKGLEYPLVWLPFITNFRVQEQAFYHDRHSFEAVLDLNAAPESVDLAEAERLAEDLRLLYVALTRSVWHCSLGVAPLVRRRGDKKGDTDVHQSALGRLLQKGEPQDAAGLRTCIEALCDDDIAWQTAQTGDNQPWQVNDVSTAELNAKTLQRLPGDNWRVTSYSGLQQRGHGIAQDLMPRLDVDAAGVASVVEEPTLTPHQFPRGASPGTFLHSLFEDLDFTQPVDPNWVREKLELGGFESQWEPVLTEWITAVLQAPLNETGVSLSQLSARNKQVEMEFYLPISEPLIASQLDTLIRQFDPLSAGCPPLEFMQVRGMLKGFIDLVFRHEGRYYLLDYKSNWLGEDSSAYTQQAMAAAMQAHRYDLQYQLYTLALHRYLRHRIADYDYEHHFGGVIYLFLRGVDKEHPQQGIYTTRPNAGLIALMDEMFAGMTLEEA	soluble
MARKTKEDTQATREGILDAAEACFHEHGVARTTLEMIGARAGYTRGAVYWHFKNKSEVLAAIVERVHLPFMQELERTSTDQRDTPVHDLRAVMIHSFIELSEDERLRKTMEIMLRSDASANTRVLTEMQQAGFRDALDRMERALRRARDLGQLREGADPKIAARMLHATVLGVLHGAMVEPELMDLKRDGMLALDMTLAAYVKDGVFVPGTVPEPLPEA	soluble
MGSDKIHHHHHHMEFSPQQDEALQAVARWLQAGKPQLFRLFGYAGTGKTTLARYFAEHVDGQVQFAAFTGKAAQVLRSKGAVNARTIHSLIYRPKGEESVEDEVTGKTSMSPTFSLNRQSPISRAKLVVIDECSMVDEQLGRDLMSFGTPILVLGDPGQLPPISGGGFFTDHEPDFLLTEIHRQARDNPILRLALDVREGREFMRGDYGTAQVIGKEDVTQELVLKADQVLVGTNRTRRRYNQRLRELKGFNADYPQAGDKLVCLRNDPAKGLLNGSLWKVMTSSRETVKPGINLLVSPEEDDPDRGVAKIKLLKAAFEDPDADIPWQQKKRFDDFDYGYALTVHKAQGSQWNEIVLFDESWAFKETRQRWLYTAITRAAERLTIVR	not soluble
MKQIKWWLLAVLLVVGLTGCGSQTTKKQATQQAASTKKISPYVNQQTPTFYVHGFQGSAKSTNTLIAHAEKTAHAHKVLVATVSTSGQVTLTGKWRGRVRNPIIQVVFKNNLAQYDQQSAWLAKVITTVQQQHAFKHYNIVAHSAGCVASVNMLMTQQTTTFPKINKLVTIAGPFDGVVGEDDVANQNSFLTSGQPKYLHAAYELLAAKRNNFPKNVQLLNIVGTLNDGSHSDSLVTNVSARSIKYLLRGRDVDYTEKDFYGAHAQHSQLHENAKVALAVDRFLWHR	not soluble
MLQVLGRLINILFPLLRFILGIWWEKLRGKDPTVSRAKAIQLRELLTNLGPTYIKVGQALSTRPDLVPPVFLDELTTLQDQLPSFPNEVAYRFIEEELGAPAEEIYAELEHHHHHH	not soluble
MKQIYFGGGCFWGTQKYFDLIKGVQKTSVGYLNSNMKNPTYEQVCSGQTNAVEAVFVEYDENKVSLNELIDAFFKVIDPTIRNRQGNDIGTQYRTGVYWVDPQDEQLITQKFRELQANYPKPIVTENRAMENYFLAEEYHQDYLKKNPHGYCHIKFD	soluble
EACGYSDRVLQLTLGNSTITTQEAANSVVAYGRWPEYLRDSEANPVDQPTEPDVAACRFYTLDTVSWTKESRGWWWKLPDALRDMGLFGQNMYYHYLGRSGYTVHVQCNASKFHQGALGVFAVPEMCLAGDSNTTTMHTSYQNANPGEKGGTFTGTFTPDNNQTSPARRFCPVDYLLGNGTLLGNAFVFPHQIINLRTNNCATLVLPYVNSLSIDSMVKHNNWGIAILPLAPLNFASESSPEIPITLTIAPMCCEFNGLRNITLPRLQ	soluble
MRLSDYNTPLSGMLAAQMGLQTTKQNLSNIHTPGYVRQMVNYESAGGSKGYAPEQRIGYGVQTLGVDRITDEVKTKQYNDQMSQFSYYAYMNSTLSRVESMVGTTGKNSLSSLMDGFFNAFREVAKNPEQSNYYDTLIAETGKFTSQVSRLAKNLDTVEAQTTEDIEAHVNEFNRLAASLAEANKKIGQAGTQVPNQLLDERDRIMTEMSKYADIEVSYEATNPNIASVRMNGVLTVNGQDTYPLQLQKDKKPMSVQISGTDIPLSGGTILSAIDTKAKITNYKDNLNEFVNSLKKQVNNTMKKELFVGEDAKKLELNPDFIKDISKMKISAETANNLAAITDKGYKDGLTYKQALDQFLVGVASDKSSVNAYQNIHKDLLEGIQQEKMSIEGVNMEEEMVNLMAFQKYFVANSKAITTMNEVFDSLFSIIR	not soluble
MKDLIKVQQKLIPDLIDKMYRRFYILSTISQNQPVGRRSLSEHMDMTERVLRSETDMLKKQELIRVKPTGMEITNEGTEVLAQLGEYFNVYSDDHKLASAIKDKFHIKDVHVIPGDSDSNRTVKREMGQQAGQLLEGILYEDAIVSVTGGSTMACVSESIHLLPFNVFFVPARGGLGENVVYQANTIASSMAQQAGGYYTTLYVPDNVSESTYDTLMLEPSVMHTLDKIKQANITIHGIGDALKMAHRRQSSQNVIDNLQHHQAVGEAFGYYFDAQGQIVHKVKTIGLQLEDLENKDFIFAVAGGQSKGEAIKAYLSIAPENTVLITDEAAAKVILQ	not soluble
MGSDKIHHHHHHMIQKGLEGVKICESSICYLDGINGRLYYRGIPVEELAEKSTFEETAYFLWYGKLPTKSELEEFKRKMADYRELPAEALGILYHLPKNLHYIDVLKIFLSIHGSMDGNDEDLREKAIRVASVFPTILAYYYRYSKGKELIRPRKDLSHVENFYYMMFGERNEKIRLLESAFILLMEQDINASTFAALVIASTLSDLYSCIVGALGALKGPLHGGASEKVPPMLEEIGSEDRVEEFVQKCLKEKRKIMGFGHRVYKTYDPRAVFLKRVLQEHFPDSKLFRIASKLEEYIVSNKIKNIYPNVDLYSSVLFEELGFPRNMFTALFATARVVGWTAHVIEYVSDNKLIRPTSEYVGPMDVEYIPIERRDENG	not soluble
